In the supplement of paper PMC10567573:
± gives the standard deviation.

Assay: protein stability index of a GFP-peptide fusion (GPS, HEK-293T) (PSI 1-6); higher = more stable
[1] = treatment: DMSO, c terminus: a fixed tail appended
[2] = treatment: MLN4924 1 uM, 8 h, c terminus: a fixed tail appended
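Further: 24-mer peptide tiles fused after GFP, lentivirally expressed, FACS-sorted into six equal bins by GFP/DsRed ratio, decoded by Illumina sequencing, PSI is the read-weighted mean bin number.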

Sequence | protein stability index [1] | protein stability index [2] | protein stability index (treatment: DMSO, c terminus: native) | protein stability index (treatment: MLN4924 1 uM, 8 h, c terminus: native)
KIFVENLRRQKSLRLEWETQQELR [IQUB] | 2.69 ± 0.43 | 2.93 ± 0.46 |  | 
KILAEAAKLVPMGFTTATEFHQRR [RAD51] | 2.56 ± 0.23 | 2.7 ± 0.52 |  | 
KIPGTGALASAAAAVSGSKAKAE [RTN2] |  |  | 5.34 ± 0.14 | 5.32 ± 0.14
KIQLSDSEAKSHSSADDASAWSNI [FAN1] | 4.757 ± 0.032 | 4.74 ± 0.11 |  | 
KISYIGLMTQSSLETHHYVDCGGN [TMEM106C] | 2.48 ± 0.24 | 2.45 ± 0.24 |  | 
KKIEFGVVYSCVEGKMYTARKGKG [IMPA1] | 3.06 ± 0.075 | 3.24 ± 0.12 |  | 
KKQAGRPKGSKGKEKDSPFKPKLY [RBBP5] | 3.74 ± 0.26 | 3.91 ± 0.28 |  | 
KKTSITQQPSKHRTDEELQPPTTT [PLK2] | 5.27 ± 0.2 | 5.26 ± 0.16 |  | 
KKTWKILTIMPYNSAHHCVVEVEN [KLHL14] | 2.27 ± 0.37 | 2.64 ± 0.26 |  | 
KLATCYFFTVEFGLCKQDGQLRVF [TPH1] | 2.59 ± 0.47 | 2.97 ± 0.56 |  | 
KLCTAHMCSTLEHNCAHFCINIPG [MATN2] | 2.22 ± 0.38 | 2.22 ± 0.29 |  | 
KLIDRLEKKDLKLEPPEEEIIEGN [NECAB1] | 4.88 ± 0.32 | 4.8 ± 0.19 |  | 
KLKPHEEPLRSEILSGKFTILNVR [PTPN9] | 3.01 ± 0.14 | 2.96 ± 0.11 |  | 
KLPLPVTIKSHLKSFSMANGMNAV [RAB40C] | 2.36 ± 0.18 | 2.46 ± 0.093 |  | 
KLQVSQQEDITKSLLVTELGSSRT [IMPA1] | 4.18 ± 0.28 | 4.28 ± 0.25 |  | 
KNMDQVAPVANSYRGTLKRQPAFD [ETS2] | 3.99 ± 0.41 | 4.15 ± 0.21 |  | 
KPGKGADLSKPPCRKAKEIRKERK [ATE1] | 4.65 ± 0.44 | 5.04 ± 0.3 |  | 
KPGLRRSPIKKVRKSLALDIVDED [MYBL2] | 4.84 ± 0.5 | 4.92 ± 0.48 |  | 
KPYNCLQCLDKTNESALVKEKELS [MTUS2] | 4.74 ± 0.14 | 4.59 ± 0.23 |  | 
KRTYWPDLDAKIREALVLRSVRVR [PLD5] | 2.4 ± 0.36 | 2.77 ± 0.38 |  | 
KRYAGREEHWVGLKKEPGHPWKWS [CD69] | 2.76 ± 0.22 | 2.83 ± 0.2 |  | 
KSPSSPQAAFTQQGMEGIKVFLHE [TBX5] | 3.58 ± 0.23 | 3.68 ± 0.26 |  | 
KSSGRFLWIKFFAAGELESMGFSA [NETO1] | 2.59 ± 0.54 | 2.64 ± 0.73 |  | 

Sequence | protein stability index [1] | protein stability index [2] | protein stability index (treatment: DMSO, c terminus: native) | protein stability index (treatment: MLN4924 1 uM, 8 h, c terminus: native)
KSVQGTGLAFIAFTEAMTHFPASP [SLC6A17] | 2.19 ± 0.49 | 2.22 ± 0.12 |  | 
KTRRKTSARDASPTPSTDAEYPAN [NCK2] | 5.31 ± 0.21 | 5.45 ± 0.17 |  | 
KVYPVQEALAVLEPYARLPPHKHV [TRIB3] | 3.02 ± 0.26 | 3.09 ± 0.15 |  | 
KYDPKTQEWSFLPSITRKRRYVAS [KLHL12] | 3.15 ± 0.4 | 2.93 ± 0.27 |  | 
KYPSHSFIGEESVAAGEKSILTDN [IMPA1] | 4.66 ± 0.24 | 4.75 ± 0.1 |  | 
LALYVLFLADEEFDVVVCDQVSAC [ALG2] | 2.92 ± 0.44 | 2.59 ± 0.59 |  | 
LAVLDWNQRAMDLYKALGAQDLTE [SAT2] | 2.41 ± 0.24 | 2.42 ± 0.19 |  | 
LDSEKRTPLHVAAFLGDAEIIELL [ANKRD44] | 2.95 ± 0.12 | 3.03 ± 0.32 |  | 
LEAAEALLTLRNSAQAPPDSISLH [DMRTC1] | 4.42 ± 0.18 | 4.27 ± 0.25 |  | 
LEEELRQLKEEMARHLREYQELLN [PRPH] | 3.27 ± 0.11 | 3.62 ± 0.32 |  | 
LEGEEENELTLNEKNFFPEYNYDW [CHGB] | 4.21 ± 0.37 | 4.46 ± 0.28 |  | 
LEISGIIMSRVNAYQQGVGYQMLG [PHTF1] | 2.81 ± 0.35 | 2.63 ± 0.51 |  | 
LEKPPAPNQAMVVAAAGDACPPQH [TBC1D10A] | 5.21 ± 0.21 | 5.2 ± 0.33 |  | 
LEPPTMRKKRLLDRKVLLKSDSPT [GOLPH3L] | 4.38 ± 0.21 | 4.54 ± 0.17 |  | 
LESRQRSLEQANRSLQLRIQELEL [TFE3] | 3.97 ± 0.27 | 3.98 ± 0.4 |  | 
LETFGHLLSIGPELPKPEVISQLE [ZNF8] | 3.94 ± 0.38 | 3.93 ± 0.19 |  | 
LEVERQENEQRRLFIQKEEQLQQI [MNAT1] | 4.6 ± 0.36 | 4.64 ± 0.17 |  | 
LFAPTLIYRDSYPRNPTVRWGYVA [SOAT1] | 2.44 ± 0.55 | 2.06 ± 0.35 |  | 
LFLRCSLRHKDEEEEDDDDIHITA [DRICH1] | 3.03 ± 0.35 | 3.23 ± 0.28 |  | 
LFQILSERQDMYQCLVEGCTEKFK [ZNF511] | 2.24 ± 0.35 | 2.54 ± 0.6 |  | 
LGCALLAAHAVVLCALPVHVAVEH [SOAT2] | 3.43 ± 0.35 | 3.09 ± 0.51 |  | 
LGIHEDSTNRRRLSELLRYHTSQS [HSP90AB1] | 3.5 ± 0.22 | 3.71 ± 0.24 |  | 
LGKLIPRHQSIFKSNGFFHGISIP [CDKL4] | 2.17 ± 0.052 | 2.23 ± 0.41 |  | 

Sequence | protein stability index [1] | protein stability index [2] | protein stability index (treatment: DMSO, c terminus: native) | protein stability index (treatment: MLN4924 1 uM, 8 h, c terminus: native)
LGKMLIGLAGYLSGYDGTFLFQKP [POMT2] | 2.65 ± 0.86 | 2.45 ± 0.79 |  | 
LGLDNRLFGHPGLDMELGPSQGQE [ADAMTSL2] | 4.84 ± 0.21 |  |  | 
LGQQQRDMRRDEEGSLCAAHLPKA [FBF1] | 4.97 ± 0.35 | 5.11 ± 0.16 |  | 
LGRGLVGGQEEASQEAGLPAGAGP [SEPHS2] | 5.23 ± 0.47 | 4.75 ± 0.65 |  | 
LGRSHDTVQEAATSRRARASKKTA [MFSD9] | 5.2 ± 0.21 | 5.31 ± 0.16 |  | 
LGSSAASTALERPSFLSQTGHGVS [FCHO1] | 4.28 ± 0.45 | 4.2 ± 0.24 |  | 
LGWNSTERSLRLQARYHDTPYKPP [MYORG] | 2.88 ± 0.3 | 3.2 ± 0.22 |  | 
LGYAVSTFAMVKGYFFPTSARDCK [DHCR7] | 2.09 ± 0.11 | 2.09 ± 0.13 |  | 
LHEEEHVLLMAICIVSPDRPGVQD [VDR] | 2.44 ± 0.29 | 2.24 ± 0.25 |  | 
LIALANRFCLPHLVALAEQHAVQE [RHOBTB1] | 3.16 ± 0.47 | 3.33 ± 0.47 |  | 
LIKTIETRNGEVVTESQKEQRSEL [PRPH] | 4.91 ± 0.52 | 4.67 ± 0.53 |  | 
LINTSDTVQHGAVYSLEPRLCGGK [SDE2] | 3.97 ± 0.43 | 3.97 ± 0.33 |  | 
LIPQPLDSEEDEKMEEDIKEEEEK [PCMTD1] | 5.66 ± 0.23 | 5.67 ± 0.22 |  | 
LIQNGGEIDCVDKDGNTPLHVAAR [ANKRD44] | 4.32 ± 0.087 | 4.53 ± 0.16 |  | 
LIYGSMEMFPAAQQLYRHGKAYRF [JAGN1] | 2.28 ± 0.36 | 2.21 ± 0.093 |  | 
LKGARLTVEQGCQILDSLSYMRNE [FBXO39] | 2.68 ± 0.35 | 2.85 ± 0.38 |  | 
LKPFFMKEVGSHFDDFVTNLIEKS [SOAT1] | 2.48 ± 0.32 | 2.88 ± 0.13 |  | 
LKVKCLNNLAASQLKLDHYRAALR [FKBP8] | 2.28 ± 0.31 | 2.19 ± 0.47 |  | 
LLADVKGARAALNEIESRHRELLR [STX11] | 3.03 ± 0.23 | 3.3 ± 0.41 |  | 
LLDALSPEQLVLTLLEAEPPHVLI [ESR2] | 2.55 ± 0.57 | 2.08 ± 0.18 |  | 
LLDELMGRDRNLAPDEKRSNVRWD [LUC7L3] | 3.59 ± 0.21 | 3.64 ± 0.19 |  | 
LLEDARRKGMPFAQWDGPTVVSWL [PPFIA4] | 2.11 ± 0.15 | 2.01 ± 0.33 |  | 
LLEKVPCTLEQDHFKKQTIYRFLK [FEM1C] | 2.38 ± 0.83 | 2.31 ± 0.23 |  | 

Sequence | protein stability index [1] | protein stability index [2] | protein stability index (treatment: DMSO, c terminus: native) | protein stability index (treatment: MLN4924 1 uM, 8 h, c terminus: native)
LLFSLTQFSVVSVVAYLALAALSA [RTN1] | 3.4 ± 0.54 | 3.24 ± 0.058 |  | 
LLKPHSYGRFIRWLNKEKGIFKIE [SPDEF] | 2.49 ± 0.66 | 2.4 ± 0.46 |  | 
LLKRMESLKLKSSHHSKHKAPSKL [DLC1] | 3.03 ± 0.36 | 3.1 ± 0.51 |  | 
LLLASGLVITDFFGHLINGAIAVF [PTGFR] | 3.29 ± 0.72 | 3.19 ± 0.86 |  | 
LLLLYFMQVIAIVLYLMMPIVNIS [PHTF1] | 3.15 ± 0.42 | 3.06 ± 0.52 |  | 
LLPVQVVTEHPLELIRVEVEILDL [PCDHGC5] | 3.02 ± 0.66 | 3.05 ± 0.85 |  | 
LLQNEFVGFMWRQRGRVISLWERL [MCOLN1] | 2.7 ± 0.19 | 2.68 ± 0.26 |  | 
LLRHQRIHTGERPYKCPECGKSFS [ZNF263] | 2.71 ± 0.47 | 3.58 ± 0.47 |  | 
LLSILPSLLGLLSFPRNNISYLVL [JAGN1] | 3.155 ± 0.027 | 3.1 ± 0.43 |  | 
LLTFQQITTVSKAKGASLFTCDLQ [VPS39] | 2.14 ± 0.2 | 2.07 ± 0.27 |  | 
LMADKVLRWERAWFPPAIMGVVSL [ARL6IP1] | 3.13 ± 0.66 | 2.45 ± 0.86 |  | 
LMSAQTITSETTSTTTTTHITKTV [EPB41L3] | 4.5 ± 0.26 | 4.68 ± 0.14 |  | 
LNDAKRELRFLLVYLHGDDHQDSD [FAF2] | 2.31 ± 0.36 | 2.23 ± 0.25 |  | 
LNHGASVNNTTLTNSTPLRAACFD [FEM1C] | 3.98 ± 0.31 | 3.94 ± 0.14 |  | 
LNKKLKSYSLSRKKIVHYTCFDQR [CDC14A] | 2.39 ± 0.26 | 2.35 ± 0.3 |  | 
LNMRSTYAKLAAVAVFFIMLIVYV [SEC22B] | 3.14 ± 0.36 | 3.19 ± 0.23 |  | 
LNQIVTEPDANFPQFLHEGLSKPV [FAM104B] | 3.86 ± 0.039 | 3.7 ± 0.42 |  | 
LPECLEYEEEFDYETESETESEIE [GNAS] | 5.3 ± 0.15 | 5.26 ± 0.23 |  | 
LPPEKGREVAKELGIPYYETSVVA [RHOBTB2] | 3.55 ± 0.24 | 3.55 ± 0.18 |  | 
LPPSPPPSPASEQTVTVEEAAGGE [MAP2] | 5.4 ± 0.27 | 5.51 ± 0.16 |  | 
